Experimental findings from US20040143095A1 are described below.

Where no end group is shown, it is not given here.

Assay [1] has as its target rat CRF receptor type 2α (rat) (UniProt P47866). The assay can be described thus: radioligand displacement ([125I-Tyr0,Glu1,Nle17]-sauvagine), CHO membranes.
Assay [2] has as its target mouse CRF receptor type 2β (mouse) (UniProt Q60748). The description is as above.
The target in assay [3] is endogenous CRF-R2β of A7r5 rat aortic smooth muscle cells (rat), P47866. As to the kind of experiment: cell-based or functional assay.
Chain of endogenous CRF-R2β of A7r5 rat aortic smooth muscle cells (rat), P47866 (P47866 20-411): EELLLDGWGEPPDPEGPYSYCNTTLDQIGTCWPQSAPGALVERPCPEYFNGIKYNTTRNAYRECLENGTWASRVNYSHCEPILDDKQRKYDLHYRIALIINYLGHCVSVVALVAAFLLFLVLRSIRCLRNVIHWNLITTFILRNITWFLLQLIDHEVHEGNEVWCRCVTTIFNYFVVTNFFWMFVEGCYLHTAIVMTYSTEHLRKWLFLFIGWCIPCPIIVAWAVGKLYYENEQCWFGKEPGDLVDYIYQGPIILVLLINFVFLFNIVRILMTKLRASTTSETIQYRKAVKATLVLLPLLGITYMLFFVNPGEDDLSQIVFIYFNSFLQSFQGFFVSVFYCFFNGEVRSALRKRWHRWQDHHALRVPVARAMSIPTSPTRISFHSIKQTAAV

Chain of rat CRF receptor type 2α (rat) (P47866 20-411): as above

For FTLSLDVPTNIMNLLFNIAKAKNLRAQAAANAHLMAQI-NH2 [Urocortin III (human)], the Ki in assay [1] was 21.7 nM; in assay [2], 13.5 nM. The same molecule gave a cAMP accumulation in A7r5 rat aortic smooth muscle cells, EC50 in assay [3] of 80.9 nM.
In turn, VILSLDVPIGLLRILLEQARYKAARNQAATNAQILAHV (peptide, UniProt Q99ML8 73-110, looked up) [Urocortin II (mouse), Q99ML8 73-110] came in with a cAMP accumulation in A7r5 rat aortic smooth muscle cells, EC50 in assay [3] of 0.18 nM.
With VILSLDVPIGLLRILLEQARYKAARNQAATNAQILAHV (peptide, UniProt Q99ML8 73-110, looked up) [Urocortin II (mouse)], the Ki was found to be 2.1 nM in assay [1] and 0.66 nM in assay [2].
Consider IVLSLDVPIGLLQILLEQARARAAREQATTNARILARV (peptide, UniProt Q96RP3 72-109, looked up) [Urocortin II (human)], for which the results for the Ki in assay [1] and in assay [2] were 1.7 nM and 0.5 nM, respectively.
With FTLSLDVPTNIMNILFNIDKAKNLRAKAAANAQLMAQI-NH2 [Urocortin III (mouse)], the Ki in assay [1] was 5 nM; in assay [2], 1.8 nM. In assay [3], this molecule returned a cAMP accumulation in A7r5 rat aortic smooth muscle cells, EC50 of 3.7 nM.
